Test results reported in publication PMC8847413.

Key:
[1] = target: prefusion-stabilized S protein (S trimer) of SARS-CoV-2 G614 variant (SARS-CoV-2) (UniProt P0DTC2); test: BLI
[2] = target: prefusion-stabilized trimeric S protein (S ectodomain) of SARS-CoV-2 Delta (B.1.617.2) variant (SARS-CoV-2) (UniProt P0DTC2); test: BLI

Chain of human ACE2 peptidase domain (PD) (Q9BYF1 17-615): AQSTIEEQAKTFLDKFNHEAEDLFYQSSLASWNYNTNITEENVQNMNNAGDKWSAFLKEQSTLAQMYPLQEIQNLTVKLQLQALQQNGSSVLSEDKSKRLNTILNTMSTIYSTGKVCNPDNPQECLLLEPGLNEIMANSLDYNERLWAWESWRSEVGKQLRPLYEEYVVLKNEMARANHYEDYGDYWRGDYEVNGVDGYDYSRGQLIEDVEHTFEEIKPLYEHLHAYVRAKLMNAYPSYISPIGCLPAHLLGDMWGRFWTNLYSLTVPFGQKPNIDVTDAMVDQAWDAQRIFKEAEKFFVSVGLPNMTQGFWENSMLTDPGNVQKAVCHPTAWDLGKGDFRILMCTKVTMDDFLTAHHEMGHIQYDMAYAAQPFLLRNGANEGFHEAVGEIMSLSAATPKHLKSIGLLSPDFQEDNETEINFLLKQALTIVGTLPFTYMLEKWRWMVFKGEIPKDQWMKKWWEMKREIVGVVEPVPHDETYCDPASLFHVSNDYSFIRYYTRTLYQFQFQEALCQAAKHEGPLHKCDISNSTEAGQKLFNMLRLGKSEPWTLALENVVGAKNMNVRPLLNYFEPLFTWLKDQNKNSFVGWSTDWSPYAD

Substance: human ACE2 peptidase domain (PD) (from UniProt Q9BYF1) (domain or fragment)
- Kd [1]: 87 nM
- Kd [2]: 41 nM
